Measured values as given in article PMC6834283, “Duplicate divergence of two bacterial small heat shock proteins reduces the demand for Hsp70 in refolding of substrates” (PLoS Genetics, 2019).

Assays:
[1] = biological target: T1, firefly luciferase, thermally denatured (firefly, UniProt P08659 1-550 = luciferase); assay: co-sedimentation; sHsp-substrate assemblies isolated on a glycerol gradient, incubated 45 min at room temperature with buffer or with limiting or saturating DnaK/DnaJ/GrpE, then a second 10-60% glycerol gradient; pooled top, middle and bottom fractions by Western blot with IbpA antibodies; conditions: both partners purified
T1 construct: firefly luciferase (Promega), used as the aggregating substrate; Denatured at 44°C for 10 min in the presence of the sHsps; The partner is the unfolded, aggregating protein, not the native enzyme; source: bought: Promega

[2] = biological target: T2, C-His-tagged luciferase, aggregated on the BLI sensor (firefly, UniProt P08659 1-550 = luciferase); assay: BLI; aggregated C-His-tagged luciferase immobilised on Ni-NTA sensors (BLItz); 5 μM sHsps (1.66 μM IbpAEc with 3.34 μM IbpBEc for IbpABEc) heat-activated at 44°C for 5 min; room temperature, buffer D (50 mM Tris-HCl pH 7.5, 150 mM KCl, 20 mM Mg acetate, 2 mM DTT); 10 min binding, 1 h dissociation in buffer; conditions: both partners purified
T2 construct: firefly luciferase with a C-terminal His tag, used only in the BLI experiments; An anchoring layer was immobilised in 6 M urea on Ni-NTA sensors; A top aggregate layer was then formed at 44°C for 10 min; also called aggregated luciferase; immobilized luciferase aggregates; source: purified (Ni-NTA agarose); not shown: His tag, C-terminal, kept
T2 sequence (P08659 whole entry): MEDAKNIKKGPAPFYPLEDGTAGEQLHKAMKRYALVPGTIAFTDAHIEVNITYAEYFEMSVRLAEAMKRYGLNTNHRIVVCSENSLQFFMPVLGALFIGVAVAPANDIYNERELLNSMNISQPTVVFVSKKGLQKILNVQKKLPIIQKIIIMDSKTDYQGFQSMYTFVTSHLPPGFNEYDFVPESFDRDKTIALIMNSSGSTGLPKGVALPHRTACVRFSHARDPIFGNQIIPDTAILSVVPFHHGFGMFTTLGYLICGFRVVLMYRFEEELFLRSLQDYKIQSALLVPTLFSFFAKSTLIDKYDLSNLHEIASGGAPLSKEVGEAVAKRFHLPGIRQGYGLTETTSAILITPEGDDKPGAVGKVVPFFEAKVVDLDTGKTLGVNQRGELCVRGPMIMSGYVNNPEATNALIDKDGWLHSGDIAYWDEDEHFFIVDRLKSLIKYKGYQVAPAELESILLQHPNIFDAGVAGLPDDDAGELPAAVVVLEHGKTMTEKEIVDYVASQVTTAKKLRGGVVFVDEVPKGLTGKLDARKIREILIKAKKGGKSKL

T1 sequence (P08659 whole entry): as above

B1: IbpA from Escherichia coli (natural protein, E. coli, UniProt P0C054 1-137, looked up)
chain: MRNFDLSPLYRSAIGFDRLFNHLENNQSQSNGGYPPYNVELVDENHYRIAIAVAGFAESELEITAQDNLLVVKGAHADEQKERTYLYQGIAERNFERKFQLAENIHVRGANLVNGLLYIDLERVIPEAKKPRRIEIN
notes: small heat shock protein IbpA, E. coli; Forms large undefined oligomers; also called IbpAEc; source: purified as described previously [23]
binding result [1]: binds
binding result [2]: binds

B2: IbpABEc (IbpAEc and IbpBEc used together, two-sHsp system of E. coli) (complex)
chain 1: B1 chain
chain 2: MRNFDLSPLMRQWIGFDKLANALQNAGESQSFPPYNIEKSDDNHYRITLALAGFRQEDLEIQLEGTRLSVKGTPEQPKEEKKWLHQGLMNQPFSLSFTLAENMEVSGATFVNGLLHIDLIRNEPEPIAAQRIAISERPALNS
notes: small heat shock protein IbpA, E. coli; as m1; small heat shock protein IbpB, E. coli; as m2; source: the two purified proteins (as described previously [23]) mixed at about 1:2
binding result [1]: binds
binding result [2]: binds
